Reference: paper PMC11481384

Target: Keap1 Kelch domain (amino acid residues 309 to 624) (human) (UniProt Q14145)
Assay: ITC; MicroCal ITC200, 25 °C, 20 mM Tris‐HCl and 150 mM NaCl; Kelch and synthetic PGAM5 peptides; 19 injections at 2‐min intervals

Sequence of Keap1 Kelch domain (amino acid residues 309 to 624) (human) (Q14145 309-624): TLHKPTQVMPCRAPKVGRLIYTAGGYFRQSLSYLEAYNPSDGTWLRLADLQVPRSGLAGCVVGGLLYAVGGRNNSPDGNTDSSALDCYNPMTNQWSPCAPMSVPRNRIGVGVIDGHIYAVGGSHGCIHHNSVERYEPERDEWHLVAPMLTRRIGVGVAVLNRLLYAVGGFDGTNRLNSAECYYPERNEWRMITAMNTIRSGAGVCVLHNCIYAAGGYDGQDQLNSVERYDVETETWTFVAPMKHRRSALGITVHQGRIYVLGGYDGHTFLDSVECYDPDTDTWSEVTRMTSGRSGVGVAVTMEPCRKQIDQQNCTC

Substance	Kd [µM]
E79A mutant based on the PGAM5 20‐mer peptide	37.7
PGAM5 20‐mer peptide (based on the ESGE motif)	0.107
